Measured values published in article PMC2923189, “An Oligopeptide Transporter of Mycobacterium tuberculosis Regulates Cytokine Release and Apoptosis of Infected Macrophages” (PLoS ONE, 2010).

Assays:
Assay in all cases: radioligand binding
[1] = biological target: OppAMTB mutant G109S (Mycobacterium tuberculosis) (UniProt P9WGU5)
[2] = biological target: OppAMTB mutant N110A (Mycobacterium tuberculosis) (UniProt P9WGU5)
[3] = biological target: OppAMTB mutant D494N (Mycobacterium tuberculosis) (UniProt P9WGU5)
[4] = biological target: OppAMTB mutant N230G (Mycobacterium tuberculosis) (UniProt P9WGU5)
[5] = biological target: OppAMTB mutant F496D (Mycobacterium tuberculosis) (UniProt P9WGU5)

Measured: loss of binding activity against wild type

bradykinin (nonapeptide)
> 50%: all assays above

glutathione (tripeptide)
> 50%: all assays above
